B1: OR4K15 (parent)
chain: GUUAACGGUCAUAGGCCAUGGAAACUAGGAGCACCAUUUCGCUGCCAGUGAAGAAAUGAACAAAGAAAAUCUGGGCCAGGCAGGCAUCAAAAGAAAUAGUCUUGCGCUCAACCAGAAAGUCUGUAAUCAUUUUAAGGGUA

Variants of: B1
Test: self-cleavage, relative activity (ratio to wild type); higher = more cleavage; in vitro, sequencing; the parent is a self-cleaving ribozyme

Variant | self-cleavage
A129U U132C | 1.12
U131C G137A | 0.07
U131C G137U | 1.54
A129G U139A | 0.81
A129G U139C | 0.85
U130C G136U | 1.19
G137C A140U | 1.65
U130C U131C | 1.01
U130C U131A | 0.25
A129U U131C | 0.96
U130G A135G | 1.08
U133G | 0.38
U133A | 1.32
U133C | 1.29
A140U | 1.12
A140G | 1.15
A140C | 1.4
A134U U139A | 1.59
A135U G137U | 1.68
A134G A140G | 0.28
A129G U131C | 1.38

Variant | self-cleavage
U130C A134G | 0.27
G136A A140U | 2.39
A129U A134U | 1.18
U130A U132C | 1.42
U139A | 0.59
U139G | 1.1
U139C | 1.04
U131C A134G | 0.73
A129U A135U | 0.42
U130C A140G | 1
A134G A135G | 1.25
U130A U139C | 0.78
U131C A140G | 0.47
U131C A140U | 1.59
A129G G137C | 1.54
A134G G137U | 0.44
A129G A140U | 2.17
G136C | 1.29
G136U | 1.07
G136A | 1.34
U139C A140C | 1.42

Variant | self-cleavage
U132C A135G | 1.53
U130C U133C | 1.54
U132C G138U | 1.54
U130C A135U | 0.65
U132C A134G | 1.05
U132C U139A | 0.99
U130A U131C | 1.75
U133C A135U | 1.71
U131C U132A | 0.94
U131C U132C | 1.1
U133C A140U | 2.09
U133C A140G | 1.34
U131A G137U | 0.48
A129U | 0.65
U133A G136U | 0.91
A129G U133C | 1.42
U131C A135U | 0.87
U131C A135G | 1.55
U131C A135C | 1.02

Source: the RNAGym collection of RNA variant scans (doi:10.7554/elife.90254)
